Assay results taken from patent US20120316071A1 (published 2012).

T1: rHuman Erythropoietin R/Fc Chimera, CF (R&D Systems Cat#963-ER) (human, UniProt P19235 25-250)
T1 construct: Bought Fc chimera; also called EPO R/Fc; Epo R; Fc part of the bought chimera not given
T1 sequence (looked up): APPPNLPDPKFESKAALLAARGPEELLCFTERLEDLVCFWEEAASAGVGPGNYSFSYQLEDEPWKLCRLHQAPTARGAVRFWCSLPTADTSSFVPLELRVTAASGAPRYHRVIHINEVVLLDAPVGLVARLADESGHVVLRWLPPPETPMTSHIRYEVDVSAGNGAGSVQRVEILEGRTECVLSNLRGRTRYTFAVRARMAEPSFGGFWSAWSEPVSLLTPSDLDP

T2: rHuman Erythropoietin R/Fc Chimera, CF (R&D Systems Cat#963-ER) (human, UniProt P19235 25-250)
T2 construct: Bought from R&D Systems; also called EPO R/Fc; Epo R/Fc chimera; not shown: Fc of the bought chimera
T2 sequence (looked up): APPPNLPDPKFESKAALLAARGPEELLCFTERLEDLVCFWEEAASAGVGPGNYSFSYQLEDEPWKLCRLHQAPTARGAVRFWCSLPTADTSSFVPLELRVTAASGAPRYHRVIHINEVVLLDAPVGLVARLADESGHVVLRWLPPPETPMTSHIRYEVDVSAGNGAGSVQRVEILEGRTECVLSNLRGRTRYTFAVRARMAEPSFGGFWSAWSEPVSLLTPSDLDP


What was measured:
[1] = biological target: T1, rHuman Erythropoietin R/Fc Chimera, CF …; assay: MSD Multispot ECL, antigen spotted on plate, Fab at 240 nM; blank spot 316
[2] = biological target: T3, rHuman Notch-1/Fc Chimera, CF (R&D Systems Cat#3647-TK) (human, UniProt P46531 19-526); assay: as above
T3 construct: Bought Fc chimera; Fc part of the bought chimera not given

[3] = biological target: T4, rHuman P-Cadherin/Fc Chimera, CF (R&D Systems Cat#861-PC) (human, UniProt P22223 108-654); assay: as above
T4 construct: Bought Fc chimera; Fc part of the bought chimera not given

[4] = biological target: T5, rHuman CD44/Fc Chimera, CF (R&D Systems Cat#3660-CD) (human, UniProt P16070 21-220); assay: as above
T5 construct: Bought Fc chimera; Fc part of the bought chimera not given

[5] = biological target: T6, Recombinant Human DLL4 (R&D Systems Cat#1506-D4/CF) (human, UniProt Q9NR61 27-524); assay: as above
T6 construct: Bought recombinant protein; also called rHuman DLL4; delta-like protein 4

[6] = biological target: T7, rHuman HGF R/c-MET/Fc Chimera, CF (R&D Systems Cat#358-MT/CF) (human, UniProt P08581 25-932); assay: MSD multispot ECL, antigen spotted on plate, Fab 1410 nM; blank spot 709
T7 construct: Bought from R&D Systems; also called HGF R/Fc; hepatocyte growth factor receptor (HGF R/c-Met); not shown: Fc of the bought chimera
T7 sequence (P08581 25-932, change not shown): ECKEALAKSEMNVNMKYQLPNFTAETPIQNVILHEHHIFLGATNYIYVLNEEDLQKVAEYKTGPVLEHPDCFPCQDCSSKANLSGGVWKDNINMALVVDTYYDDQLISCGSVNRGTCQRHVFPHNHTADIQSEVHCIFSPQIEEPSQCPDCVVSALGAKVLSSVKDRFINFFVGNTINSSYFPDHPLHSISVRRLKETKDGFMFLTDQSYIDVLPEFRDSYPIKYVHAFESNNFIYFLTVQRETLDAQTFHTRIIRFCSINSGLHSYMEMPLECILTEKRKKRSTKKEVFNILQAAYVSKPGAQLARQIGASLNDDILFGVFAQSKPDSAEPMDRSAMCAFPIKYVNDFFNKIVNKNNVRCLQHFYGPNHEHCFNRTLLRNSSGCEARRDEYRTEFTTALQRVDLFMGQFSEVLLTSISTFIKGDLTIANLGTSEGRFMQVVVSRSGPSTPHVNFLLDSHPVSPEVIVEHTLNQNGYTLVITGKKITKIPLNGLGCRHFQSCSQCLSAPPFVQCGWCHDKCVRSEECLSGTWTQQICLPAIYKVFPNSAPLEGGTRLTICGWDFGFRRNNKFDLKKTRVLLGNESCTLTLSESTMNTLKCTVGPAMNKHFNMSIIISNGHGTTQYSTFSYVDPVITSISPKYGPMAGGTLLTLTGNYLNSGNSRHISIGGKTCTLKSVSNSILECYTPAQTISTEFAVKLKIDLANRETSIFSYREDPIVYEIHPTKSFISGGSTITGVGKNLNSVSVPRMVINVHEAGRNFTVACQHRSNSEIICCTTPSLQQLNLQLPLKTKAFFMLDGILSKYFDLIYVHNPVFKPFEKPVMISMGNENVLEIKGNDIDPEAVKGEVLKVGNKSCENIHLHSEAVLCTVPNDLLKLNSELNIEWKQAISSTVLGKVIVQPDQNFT

[7] = biological target: T8, rHuman CD44/Fc Chimera, CF (R&D Systems Cat#3660-CD) (human, UniProt P16070 21-220); assay: as above
T8 construct: Bought from R&D Systems; not shown: Fc of the bought chimera

[8] = biological target: T9, Recombinant Human DLL4 (R&D Systems Cat#1506-D4/CF) (human, UniProt Q9NR61 27-524); assay: as above
T9 construct: Bought from R&D Systems; also called rHuman DLL4; delta-like protein 4

[9] = biological target: T10, rHuman Notch-1/Fc Chimera, CF (R&D Systems Cat#3647-TK) (human, UniProt P46531 19-526); assay: MSD multispot ECL, antigen spotted on plate, Fab 44.1 nM; blank spot 200
T10 construct: Bought from R&D Systems; not shown: Fc of the bought chimera

[10] = biological target: T7, rHuman HGF R/c-MET/Fc Chimera, CF (R&D …); assay: as above
[11] = biological target: T2, rHuman Erythropoietin R/Fc Chimera, CF …; assay: as above
[12] = biological target: T11, rHuman IGF-1 sR, (IGF-1 sR), CF (R&D Systems Cat#391-GR) (human, UniProt P08069 31-932); assay: as above
T11 construct: Bought from R&D Systems and called a soluble receptor; also called insulin-like growth factor-1 soluble receptor

[13] = biological target: T8, rHuman CD44/Fc Chimera, CF (R&D Systems …); assay: as above
[14] = biological target: T12, rHuman EGF R/Fc Chimera, CF (R&D Systems Cat#344-ER) (human, UniProt P00533 25-645); assay: as above
T12 construct: Bought from R&D Systems; also called epidermal growth factor receptor (EGF R); not shown: Fc of the bought chimera

[15] = biological target: T9, Recombinant Human DLL4 (R&D Systems …); assay: as above
[16] = biological target: T13, rHuman ErbB2/Fc Chimera, CF (R&D Systems Cat#1129-ER) (human, UniProt P04626 23-652); assay: as above
T13 construct: Bought from R&D Systems; also called human epidermal growth factor 2 receptor (ErbB2); not shown: Fc of the bought chimera

[17] = biological target: T14, rHuman P-Cadherin/Fc Chimera, CF (R&D Systems Cat#861-PC) (human, UniProt P22223 108-654); assay: as above
T14 construct: Bought from R&D Systems; not shown: Fc of the bought chimera

[18] = biological target: T13, rHuman ErbB2/Fc Chimera, CF (R&D …); assay: MSD multispot ECL, antigen spotted on plate, Fab 176.3 nM; blank spot 346
[19] = biological target: T14, rHuman P-Cadherin/Fc Chimera, CF (R&D …); assay: as above

Row | ECL signal [1] | ECL signal [2] | ECL signal [3] | ECL signal [4] | ECL signal [5] | ECL signal [6] | ECL signal [7] | ECL signal [8] | ECL signal [9] | ECL signal [10] | ECL signal [11] | ECL signal [12] | ECL signal [13] | ECL signal [14] | ECL signal [15] | ECL signal [16] | ECL signal [17] | ECL signal [18] | ECL signal [19] | Binder
1 | 478 | 368 | 383 | 470 | 1270 |  |  |  |  |  |  |  |  |  |  |  |  |  |  | Fab VH6-1_IGHD3-3*01_IGHJ4*01 & V4-3_IGLJ4*01 (Fab, V domains shown, Tested as a purified germline Fab made in E. coli; The VH was cloned into plasmid A (CH1 constant region, His6 and Flag tags) and the lambda VL into plasmid E (lambda CL)) VH: QVQLQQSGPGLVKPSQTLSLTCAISGDSVSSNSAAWNWIRQSPSRGLEWLGRTYYRSKWYNDYAVSVKSRITINPDTSKNQFSLQLNSVTPEDTAVYYCAREYYDFWSGYYTDYFDYWGQGTLVTVSS VL: QPVLTQPTSLSASPGASARLTCTLRSGINLGSYRIFWYQQKPESPPRYLLSYYSDSSKHQGSGVPSRFSGSKDASSNAGILVISGLQSEDEADYYCMIWHSSASFVFGGGTQLIIL
2 |  |  |  |  |  | 903 | 885 | 1260 | 331 | 336 | 2390 | 309 | 302 | 428 | 388 | 347 | 343 | 448 | 532 | Fab VH1-46_IGHD3-10*01_IGHJ4*01 & B3_IGKJ1*01 (Fab, V domains shown, Tested as a Fab made in E. coli; VH was cloned into Plasmid A (CH1 constant region, His6 and Flag tags); The kappa VL was cloned into Plasmid C (kappa CL)) VH: QVQLVQSGAEVKKPGASVKVSCKASGYTFTSYYMHWVRQAPGQGLEWMGIINPSGGSTSYAQKFQGRVTMTRDTSTSTVYMELSSLRSEDTAVYYCAREYYYGSGSYYNDYFDYWGQGTLVTVSS VL: not shown
